According to patent publication US20100183625A1, “Treatment of Mucositis with Kallikrein Inhibitors” (Dyax Corp., priority 2009, published 2010):

Target: T1, pKal (Homo sapiens, UniProt P03952)
T1 construct: two disulfide linked polypeptides; a heavy chain of approximately 52 kDa and a catalytic domain of approximately 34 kDa; host or cells: human plasma
Assay: Fab fragments (small scale) tested for inhibition against human pKal in an in vitro protease cleavage assay
Format: biochemical
Details: Table 9
Experimental: By DNA sequencing, we recovered 61 of the possible 80 antibodies (Table 9). These antibodies were produced as Fab fragments in small scale (˜20 μg) and tested for inhibition against human pKal in an in vitro protease cleavage assay using Pro-Phe-Arg-aminomethylcoumarin as the synthetic peptide substrate. […] Five antibodies were then expressed in 293T cells and purified by protein A sepharose chromatography. The antibodies were analyzed by SDS-PAGE to determine which of the inhibitory mutants are not cleaved by the host cell protease(s) (data not shown).

T1 sequence (P03952 391-638 limits assumed): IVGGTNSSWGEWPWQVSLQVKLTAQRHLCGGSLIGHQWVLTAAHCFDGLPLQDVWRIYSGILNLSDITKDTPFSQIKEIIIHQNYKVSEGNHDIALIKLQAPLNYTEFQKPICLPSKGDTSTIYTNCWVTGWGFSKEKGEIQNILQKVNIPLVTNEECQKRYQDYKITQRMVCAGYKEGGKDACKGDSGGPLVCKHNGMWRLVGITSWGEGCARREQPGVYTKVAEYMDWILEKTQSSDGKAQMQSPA
T1 sequence (P03952 20-390 partner limits assumed): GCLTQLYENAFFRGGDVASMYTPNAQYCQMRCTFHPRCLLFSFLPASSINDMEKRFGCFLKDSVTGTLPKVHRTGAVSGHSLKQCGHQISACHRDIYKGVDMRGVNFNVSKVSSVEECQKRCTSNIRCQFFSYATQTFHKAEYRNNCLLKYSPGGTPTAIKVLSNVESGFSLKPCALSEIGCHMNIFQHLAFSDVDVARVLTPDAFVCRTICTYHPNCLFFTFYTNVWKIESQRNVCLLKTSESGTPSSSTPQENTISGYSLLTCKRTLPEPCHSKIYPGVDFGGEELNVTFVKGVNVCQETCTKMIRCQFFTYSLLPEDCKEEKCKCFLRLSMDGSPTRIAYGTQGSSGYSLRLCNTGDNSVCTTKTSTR

B1: X66-H02: single point mutation of M142-H08 (P1); HV-CDR3 GGLLLWFGELKSNYFDY (antibody, V domains shown)
VL: QDIQMTQSPSSLSAFVGDRVTITCRASQPIDNYLNWYHQKPGKAPKLLIYAASRLQSGVPSRLSGSGFGTDFTLTISSLQPEDFGNYYCQQSYTVPYTFGGGTKVEIR
VH: EVQLLESGGGLVQPGGSLRLSCAASGFTFSAYSMIWVRQAPGKGLEWVSYIRPSGGRTTYADSVKGRFTISRDNSKNTLYLQMNSLRAEDTAVYYCARGGLLLWFGELKSNYFDYWGQGTLVTVSSASTKGPSVFPLAPSSKS
Inhibit as a Fab?: No

B2: X66-C11: single point mutation of M142-H08 (P1); HV-CDR3 GGLLLWFHELKSNYFDY (antibody, V domains shown)
VL: QDIQMTQSPSSLSAFVGDRVTITCRASQPIDNYLNWYHQKPGKAPKLLIYAASRLQSGVPSRLSGSGFGTDFTLTISSLQPEDFGNYYCQQSYTVPYTFGGGTKVEIR
VH: EVQLLESGGGLVQPGGSLRLSCAASGFTFSAYSMIWVRQAPGKGLEWVSYIRPSGGRTTYADSVKGRFTISRDNSKNTLYLQMNSLRAEDTAVYYCARGGLLLWFHELKSNYFDYWGQGTLVTVSSASTKGPSVFPLAPSSKS
Inhibit as a Fab?: No

B3: X66-A07: single point mutation of M142-H08 (P1); HV-CDR3 GGLLLWFKELKSNYFDY (antibody, V domains shown)
VL: QDIQMTQSPSSLSAFVGDRVTITCRASQPIDNYLNWYHQKPGKAPKLLIYAASRLQSGVPSRLSGSGFGTDFTLTISSLQPEDFGNYYCQQSYTVPYTFGGGTKVEIR
VH: EVQLLESGGGLVQPGGSLRLSCAASGFTFSAYSMIWVRQAPGKGLEWVSYIRPSGGRTTYADSVKGRFTISRDNSKNTLYLQMNSLRAEDTAVYYCARGGLLLWFKELKSNYFDYWGQGTLVTVSSASTKGPSVFPLAPSSKS
Inhibit as a Fab?: No

B4: X66-C03: single point mutation of M142-H08 (P1); HV-CDR3 GGLLLWFLELKSNYFDY (antibody, V domains shown)
VL: QDIQMTQSPSSLSAFVGDRVTITCRASQPIDNYLNWYHQKPGKAPKLLIYAASRLQSGVPSRLSGSGFGTDFTLTISSLQPEDFGNYYCQQSYTVPYTFGGGTKVEIR
VH: EVQLLESGGGLVQPGGSLRLSCAASGFTFSAYSMIWVRQAPGKGLEWVSYIRPSGGRTTYADSVKGRFTISRDNSKNTLYLQMNSLRAEDTAVYYCARGGLLLWFLELKSNYFDYWGQGTLVTVSSASTKGPSVFPLAPSSKS
Inhibit as a Fab?: No

B5: X66-G05: single point mutation of M142-H08 (P1); HV-CDR3 GGLLLWFMELKSNYFDY (antibody, V domains shown)
VL: QDIQMTQSPSSLSAFVGDRVTITCRASQPIDNYLNWYHQKPGKAPKLLIYAASRLQSGVPSRLSGSGFGTDFTLTISSLQPEDFGNYYCQQSYTVPYTFGGGTKVEIR
VH: EVQLLESGGGLVQPGGSLRLSCAASGFTFSAYSMIWVRQAPGKGLEWVSYIRPSGGRTTYADSVKGRFTISRDNSKNTLYLQMNSLRAEDTAVYYCARGGLLLWFMELKSNYFDYWGQGTLVTVSSASTKGPSVFPLAPSSKS
Inhibit as a Fab?: No

B6: X66-F10: single point mutation of M142-H08 (P1); HV-CDR3 GGLLLWFPELKSNYFDY (antibody, V domains shown)
VL: QDIQMTQSPSSLSAFVGDRVTITCRASQPIDNYLNWYHQKPGKAPKLLIYAASRLQSGVPSRLSGSGFGTDFTLTISSLQPEDFGNYYCQQSYTVPYTFGGGTKVEIR
VH: EVQLLESGGGLVQPGGSLRLSCAASGFTFSAYSMIWVRQAPGKGLEWVSYIRPSGGRTTYADSVKGRFTISRDNSKNTLYLQMNSLRAEDTAVYYCARGGLLLWFPELKSNYFDYWGQGTLVTVSSASTKGPSVFPLAPSSKS
Inhibit as a Fab?: No

B7: X66-E04: single point mutation of M142-H08 (P1); HV-CDR3 GGLLLWFQELKSNYFDY (antibody, V domains shown)
VL: QDIQMTQSPSSLSAFVGDRVTITCRASQPIDNYLNWYHQKPGKAPKLLIYAASRLQSGVPSRLSGSGFGTDFTLTISSLQPEDFGNYYCQQSYTVPYTFGGGTKVEIR
VH: EVQLLESGGGLVQPGGSLRLSCAASGFTFSAYSMIWVRQAPGKGLEWVSYIRPSGGRTTYADSVKGRFTISRDNSKNTLYLQMNSLRAEDTAVYYCARGGLLLWFQELKSNYFDYWGQGTLVTVSSASTKGPSVFPLAPSSKS
Inhibit as a Fab?: No

B8: X66-F01: single point mutation of M142-H08 (P1); HV-CDR3 GGLLLWFSELKSNYFDY (antibody, V domains shown)
VL: QDIQMTQSPSSLSAFVGDRVTITCRASQPIDNYLNWYHQKPGKAPKLLIYAASRLQSGVPSRLSGSGFGTDFTLTISSLQPEDFGNYYCQQSYTVPYTFGGGTKVEIR
VH: EVQLLESGGGLVQPGGSLRLSCAASGFTFSAYSMIWVRQAPGKGLEWVSYIRPSGGRTTYADSVKGRFTISRDNSKNTLYLQMNSLRAEDTAVYYCARGGLLLWFSELKSNYFDYWGQGTLVTVSSASTKGPSVFPLAPSSKS
Inhibit as a Fab?: No

B9: X66-H11: single point mutation of M142-H08 (P1); HV-CDR3 GGLLLWFTELKSNYFDY (antibody, V domains shown)
VL: QDIQMTQSPSSLSAFVGDRVTITCRASQPIDNYLNWYHQKPGKAPKLLIYAASRLQSGVPSRLSGSGFGTDFTLTISSLQPEDFGNYYCQQSYTVPYTFGGGTKVEIR
VH: EVQLLESGGGLVQPGGSLRLSCAASGFTFSAYSMIWVRQAPGKGLEWVSYIRPSGGRTTYADSVKGRFTISRDNSKNTLYLQMNSLRAEDTAVYYCARGGLLLWFTELKSNYFDYWGQGTLVTVSSASTKGPSVFPLAPSSKS
Inhibit as a Fab?: No

B10: X66-C02: single point mutation of M142-H08 (P1); HV-CDR3 GGLLLWFVELKSNYFDY (antibody, V domains shown)
VL: QDIQMTQSPSSLSAFVGDRVTITCRASQPIDNYLNWYHQKPGKAPKLLIYAASRLQSGVPSRLSGSGFGTDFTLTISSLQPEDFGNYYCQQSYTVPYTFGGGTKVEIR
VH: EVQLLESGGGLVQPGGSLRLSCAASGFTFSAYSMIWVRQAPGKGLEWVSYIRPSGGRTTYADSVKGRFTISRDNSKNTLYLQMNSLRAEDTAVYYCARGGLLLWFVELKSNYFDYWGQGTLVTVSSASTKGPSVFPLAPSSKS
Inhibit as a Fab?: No

B11: X66-F09: single point mutation of M142-H08 (P1); HV-CDR3 GGLLLWFWELKSNYFDY (antibody, V domains shown)
VL: QDIQMTQSPSSLSAFVGDRVTITCRASQPIDNYLNWYHQKPGKAPKLLIYAASRLQSGVPSRLSGSGFGTDFTLTISSLQPEDFGNYYCQQSYTVPYTFGGGTKVEIR
VH: EVQLLESGGGLVQPGGSLRLSCAASGFTFSAYSMIWVRQAPGKGLEWVSYIRPSGGRTTYADSVKGRFTISRDNSKNTLYLQMNSLRAEDTAVYYCARGGLLLWFWELKSNYFDYWGQGTLVTVSSASTKGPSVFPLAPSSKS
Inhibit as a Fab?: No
